Measurements reported in article PMC3662668, “Structural and Functional Basis for Inhibition of Erythrocyte Invasion by Antibodies that Target Plasmodium falciparum EBA-175” (PLoS Pathogens, 2013).

B1: R218 IgG (antibody, V domains shown)
VH: EVQLQQSGAELVKPGASVKLSCTASGFNIKDNYMHWVKQRPEQGLEWIGRIDPANGNTKYDPKFQGKATITADTSSNTAYLQLSSLTSEDTAVYYCARHYDGYFLYYFEYWGQGTTLTVSS
VL: DIQMTQTTSSLSASLGDRVTITCRAGQDISNYLNWYQQKPDGTVKLLIYYTSRLHSGVPSRFSGSGSGTDYSLTISNLEQEDIATYFCQQGSTFPWTFGGGTKLEIK
notes: mouse IgG1 heavy chain; its Fab part as the heavy chain of m5 (deposited structure); as the light chain of m5; IgG1 mouse monoclonal antibody; also called R218 antibody
B2: R217 IgG (antibody, V domains shown)
VH: VQLQQSGPELVKPGTSVKISCKTSGYTFTENTMHWVKQSHGESLDWVGGINTDNGGTTYSQKFKGKATLTVDKSSSTAYMELRSLTSEDSAVYYCSTGYDAMDYWGQGTSVTVSS
VL: NIVLTQSPASLAVSLGQRATISCRASKGVDSYGNSFMHWYQQRPGQPPKLLIYLASHLESGVPARFSGSGSRTDFTLTIDPVEADDAATYYCQQNNEDPFTFGSGTKLEIK
notes: mouse IgG1 heavy chain; its Fab part as the heavy chain of m3 (deposited structure); as the light chain of m3; IgG1 mouse monoclonal antibody; also called R217 antibody

Molecular target: T1, wildtype PfEBA-175 RII expressed on the surface of HEK293T cells (Plasmodium falciparum, strain not …, UniProt Q8IBE8)
T1 construct: PfEBA-175 of P. falciparum, region II; The pRE4 vector supplies the signal and membrane anchor for surface display (surmise); also called wildtype RII; source: HEK293T, transfected (pRE4 vector), on the cell surface; not shown: GFP, C-terminal, kept
Assay: immunostaining of cells or tissue; DBL proteins on the surface of transfected HEK293T cells, probed with 10 µg/ml R217 or R218, then Alexafluor-546 anti-mouse IgG1; fluorescence microscopy
Conditions: one partner purified

Binder | binding result
B1 | binds
B2 | binds
